Residue numbers refer to the chain shown, from its start. Names may count otherwise.
T1: RESTV GP on rVSV particles (Reston virus (RESTV), UniProt Q66799 34-677)
T1 sequence: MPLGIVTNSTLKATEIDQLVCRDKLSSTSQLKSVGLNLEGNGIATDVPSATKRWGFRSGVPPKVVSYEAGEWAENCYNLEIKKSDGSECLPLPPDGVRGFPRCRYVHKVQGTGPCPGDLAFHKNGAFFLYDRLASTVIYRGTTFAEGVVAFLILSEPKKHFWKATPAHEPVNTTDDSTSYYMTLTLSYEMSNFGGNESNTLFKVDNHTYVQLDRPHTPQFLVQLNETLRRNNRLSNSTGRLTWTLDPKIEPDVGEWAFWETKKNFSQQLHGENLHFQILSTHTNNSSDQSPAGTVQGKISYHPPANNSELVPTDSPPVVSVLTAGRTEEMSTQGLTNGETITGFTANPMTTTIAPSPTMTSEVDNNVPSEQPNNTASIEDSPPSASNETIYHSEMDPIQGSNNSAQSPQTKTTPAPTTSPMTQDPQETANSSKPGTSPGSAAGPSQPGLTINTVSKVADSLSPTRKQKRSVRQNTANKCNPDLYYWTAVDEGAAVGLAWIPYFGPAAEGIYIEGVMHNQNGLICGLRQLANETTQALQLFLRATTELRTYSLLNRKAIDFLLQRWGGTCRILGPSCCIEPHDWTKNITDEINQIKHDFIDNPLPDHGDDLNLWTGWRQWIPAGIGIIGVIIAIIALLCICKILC

T2: EBOV GP on rVSV particles (Ebola virus (EBOV), UniProt Q05320 33-676)
T2 sequence: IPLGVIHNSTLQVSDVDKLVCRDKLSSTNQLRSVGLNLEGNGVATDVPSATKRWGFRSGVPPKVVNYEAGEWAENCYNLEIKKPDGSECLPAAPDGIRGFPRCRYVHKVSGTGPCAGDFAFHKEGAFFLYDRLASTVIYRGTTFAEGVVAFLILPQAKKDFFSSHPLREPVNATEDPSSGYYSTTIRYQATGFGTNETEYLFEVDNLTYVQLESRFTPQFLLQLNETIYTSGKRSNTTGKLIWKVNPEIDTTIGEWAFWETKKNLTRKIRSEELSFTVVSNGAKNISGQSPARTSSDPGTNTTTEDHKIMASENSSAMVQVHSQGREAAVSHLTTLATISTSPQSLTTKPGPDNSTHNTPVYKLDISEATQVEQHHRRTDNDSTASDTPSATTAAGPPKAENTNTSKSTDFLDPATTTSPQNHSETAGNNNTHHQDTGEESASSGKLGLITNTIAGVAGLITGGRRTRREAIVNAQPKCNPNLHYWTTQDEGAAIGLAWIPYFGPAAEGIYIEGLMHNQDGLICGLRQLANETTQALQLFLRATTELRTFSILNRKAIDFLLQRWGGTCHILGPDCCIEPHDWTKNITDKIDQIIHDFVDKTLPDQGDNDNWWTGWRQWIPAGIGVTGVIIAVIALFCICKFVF

T3: TAFV GP on VSV pseudotype particles (Tai Forest virus (TAFV), UniProt Q66810 33-676)
T3 sequence: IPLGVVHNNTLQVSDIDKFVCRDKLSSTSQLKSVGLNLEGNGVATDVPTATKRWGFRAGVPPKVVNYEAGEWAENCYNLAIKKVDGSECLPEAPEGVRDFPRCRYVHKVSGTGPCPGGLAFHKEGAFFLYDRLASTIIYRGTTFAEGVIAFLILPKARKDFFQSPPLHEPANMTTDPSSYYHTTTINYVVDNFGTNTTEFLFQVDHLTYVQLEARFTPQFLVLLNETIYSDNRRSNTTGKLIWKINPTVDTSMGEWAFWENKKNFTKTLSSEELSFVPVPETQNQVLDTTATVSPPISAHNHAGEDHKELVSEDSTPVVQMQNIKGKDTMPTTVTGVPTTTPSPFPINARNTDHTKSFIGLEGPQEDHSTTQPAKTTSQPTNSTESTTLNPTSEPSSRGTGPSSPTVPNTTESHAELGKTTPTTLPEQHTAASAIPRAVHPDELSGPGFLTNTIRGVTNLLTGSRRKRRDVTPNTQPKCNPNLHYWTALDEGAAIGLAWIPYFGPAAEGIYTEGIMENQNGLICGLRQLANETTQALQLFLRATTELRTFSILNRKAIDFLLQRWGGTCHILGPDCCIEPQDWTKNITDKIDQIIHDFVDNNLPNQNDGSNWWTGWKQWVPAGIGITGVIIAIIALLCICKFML

T4: SUDV GP on rVSV particles (Sudan virus (SUDV), UniProt Q66814 33-676)
T4 sequence: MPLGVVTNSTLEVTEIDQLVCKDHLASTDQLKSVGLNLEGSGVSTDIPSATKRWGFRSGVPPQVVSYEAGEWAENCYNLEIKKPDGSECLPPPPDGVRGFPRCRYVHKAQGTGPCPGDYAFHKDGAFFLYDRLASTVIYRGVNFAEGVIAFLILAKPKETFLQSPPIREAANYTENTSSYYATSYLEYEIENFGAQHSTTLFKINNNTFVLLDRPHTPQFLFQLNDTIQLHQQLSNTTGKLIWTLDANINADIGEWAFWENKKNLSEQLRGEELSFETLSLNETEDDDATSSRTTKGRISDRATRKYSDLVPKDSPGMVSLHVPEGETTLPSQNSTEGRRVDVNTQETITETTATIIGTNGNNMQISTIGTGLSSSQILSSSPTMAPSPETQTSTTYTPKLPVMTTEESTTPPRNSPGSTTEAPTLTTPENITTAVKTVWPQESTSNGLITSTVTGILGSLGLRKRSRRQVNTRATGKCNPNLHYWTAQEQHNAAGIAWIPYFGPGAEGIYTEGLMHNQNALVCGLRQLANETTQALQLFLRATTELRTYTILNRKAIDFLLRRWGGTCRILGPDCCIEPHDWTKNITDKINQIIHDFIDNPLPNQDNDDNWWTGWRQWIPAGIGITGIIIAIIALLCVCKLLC

B1: PE-87 H100A (antibody, V domains shown)
VH: QVQLVQSGVTLVQPGGSLRVSCAASGFTFSSYAMSWVRQAPGKGLEWVSAISGLGGSTYYADSVKGRFTISRDNSKNTLYLQMNSLRAEDTAVYYCAKDARVWAAGYHFDYWGQGALVTVSS
VL: DIVLTQSPSTLSASVGDRVTITCRASQSISSWLAWYQQKPGEAPKLLISDASSLESGVPSRFSGSGSGTEFTLTISSLQPDDFATYYCQQYYSSPTFGGGTKVEIK
B2: PE-87 G106A (antibody, V domains shown)
VH: B1 VH with A100H, G106A
VL: B1 VL
B3: PE-87 F109A (antibody, V domains shown)
VH: B1 VH with A100H, F109A
VL: B1 VL
B4: PE-87 R101A (antibody, V domains shown)
VH: B1 VH with A100H, R101A
VL: B1 VL
B5: PE-87 H108A (antibody, V domains shown)
VH: B1 VH with A100H, H108A
VL: B1 VL
B6: PE-87 D110A (antibody, V domains shown)
VH: B1 VH with A100H, D110A
VL: B1 VL
B7: PE-87 Y107A (antibody, V domains shown)
VH: B1 VH with A100H, Y107A
VL: B1 VL
B8: PE-87 V102A (antibody, V domains shown)
VH: B1 VH with A100H, V102A
VL: B1 VL
B9: PE-87 Y111A (antibody, V domains shown)
VH: B1 VH with A100H, Y111A
VL: B1 VL
B10: PE-87 D99A (antibody, V domains shown)
VH: B1 VH with D99A, A100H
VL: B1 VL
B11: PE-87 W103A (antibody, V domains shown)
VH: B1 VH with A100H, W103A
VL: B1 VL
B12: mAb PE-87 (antibody, V domains shown)
VH: B1 VH with A100H
VL: B1 VL

What follows are binders tested against T1, RESTV GP on rVSV particles (assay: cell-based or functional assay).
For B1, the “IC50, half-maximal neutralization of viral infectivity (rVSV-GP)” value (shortened to “IC50, half-maximal neutralization”) was 0.2 nM. For B2, the “IC50, half-maximal neutralization” value was 0.2 nM. With B3 the “IC50, half-maximal neutralization” value was 0.4 nM. With B4 the “IC50, half-maximal neutralization” value was 0.2 nM. For B5, the “IC50, half-maximal neutralization” value was 0.5 nM. B6 was tested, and the “IC50, half-maximal neutralization” value was 0.4 nM. For B7, the “IC50, half-maximal neutralization” value was 1.3 nM. In the case of B8, the “IC50, half-maximal neutralization” value is reported as 0.2 nM. For B9, the “IC50, half-maximal neutralization” value was 0.1 nM.

The binders below were run against T2, EBOV GP on rVSV particles (assay: cell-based or functional assay).
For B1, the “IC50, half-maximal neutralization” value was 1 nM. With B10 the “IC50, half-maximal neutralization” value was over 500 nM. For B2, the “IC50, half-maximal neutralization” value was 0.8 nM. For B3, the “IC50, half-maximal neutralization” value was 4.2 nM. For B4, the “IC50, half-maximal neutralization” value was 3.2 nM. With B5 the “IC50, half-maximal neutralization” value was 3.2 nM. For B6, the “IC50, half-maximal neutralization” value was 2 nM. In the case of B7, the “IC50, half-maximal neutralization” value is reported as 3 nM. With B8 the “IC50, half-maximal neutralization” value was 0.6 nM. With B9 the “IC50, half-maximal neutralization” value was 0.8 nM.

These binders were tested against BDBV GP on rVSV particles (Bundibugyo virus (BDBV)) (assay: cell-based or functional assay).
In the case of B1, the “IC50, half-maximal neutralization” value is reported as 0.4 nM. For B11, the “IC50, half-maximal neutralization” value was over 200 nM. With B2 the “IC50, half-maximal neutralization” value was 0.4 nM. For B3, the “IC50, half-maximal neutralization” value was 0.3 nM. In the case of B4, the “IC50, half-maximal neutralization” value is reported as 0.4 nM. In the case of B5, the “IC50, half-maximal neutralization” value is reported as 0.6 nM. In the case of B6, the “IC50, half-maximal neutralization” value is reported as 0.9 nM. For B7, the “IC50, half-maximal neutralization” value was 0.8 nM. With B8 the “IC50, half-maximal neutralization” value was 0.2 nM. In the case of B9, the “IC50, half-maximal neutralization” value is reported as 0.4 nM.

Each binder was assayed against T3, TAFV GP on VSV pseudotype particles (assay: cell-based or functional assay).
B1 was tested, and the “IC50, half-maximal neutralization” value was 0.8 nM. In the case of B10, the “IC50, half-maximal neutralization” value is reported as over 350 nM. B11 was tested, and the “IC50, half-maximal neutralization” value was over 150 nM. For B2, the “IC50, half-maximal neutralization” value was 0.8 nM. For B3, the “IC50, half-maximal neutralization” value was 2.8 nM. In the case of B4, the “IC50, half-maximal neutralization” value is reported as 1.9 nM. With B5 the “IC50, half-maximal neutralization” value was 2.2 nM. For B6, the “IC50, half-maximal neutralization” value was 2.1 nM. For B7, the “IC50, half-maximal neutralization” value was 0.8 nM. In the case of B8, the “IC50, half-maximal neutralization” value is reported as 1 nM. For B9, the “IC50, half-maximal neutralization” value was 1.1 nM.

These binders were tested against T4, SUDV GP on rVSV particles (assay: cell-based or functional assay).
In the case of B1, the “IC50, half-maximal neutralization” value is reported as 1 nM. In the case of B2, the “IC50, half-maximal neutralization” value is reported as 0.9 nM. In the case of B3, the “IC50, half-maximal neutralization” value is reported as 2.1 nM. B4 was tested, and the “IC50, half-maximal neutralization” value was 1.5 nM. In the case of B5, the “IC50, half-maximal neutralization” value is reported as 2.1 nM. In the case of B6, the “IC50, half-maximal neutralization” value is reported as 1.5 nM. With B7 the “IC50, half-maximal neutralization” value was over 350 nM. For B8, the “IC50, half-maximal neutralization” value was 1.1 nM. With B9 the “IC50, half-maximal neutralization” value was 0.8 nM.

The binders below were run against EBOV GPCL (cleaved soluble EBOV GP) (Ebola virus (EBOV), UniProt Q05320 33-650) (assay: BLI (OctetRed), IgG on anti-human Fc sensors, GPCL in solution, 1:1 fit).
In the case of B12, the Kd is reported as under 0.001 nM.

Source: patent EP3583122A1 (dated 2019)
